Results as given in publication PMC12102759 (2025).

B1: PIP5K1C peptide 642-657 (Phosphatidylinositol 4-phosphate 5-kinase type-1 gamma), 16-mer library wild type / TLN1 PTB (TLN1 Phosphotyrosine-binding (PTB) domain, residues 309-401) (parent complex)
chain 1: TDERSWVYSPLHYSAQ
chain 2: GVSFFLVKEKMKGKNKLVPRLLGITKECVMRVDEKTKEVIQEWNLTNIKRWAASPKSFTLDFGDYQDGYYSVQTTEGEQIAQLIAGYIDIILK

Variants of: B1
Experiment: proteomic peptide phage display deep mutational scan (ProP-PD DMS): M13 P8 16-mer library selected against immobilised GST-tagged bait for four days (rounds), NGS of the eluted pools per day and pseudo-replica; bait immobilised on MaxiSorp plates (10 µg), library pre-cleared on GST, 2 h binding at 4 °C, five washes; one round per day, days 1-4; value from days 2 and 3

Variant	screen value
chain 1 Y8W	0.004 average fractional NGS count over selection days 2 and 3 (reads of this peptide / all reads for the bait, averaged over …
chain 1 Y8A	0.00167 average fractional NGS count over selection days 2 and 3 (reads of this peptide / all reads for the bait, averaged over …
chain 1 Y8T	0.0121 average fractional NGS count over selection days 2 and 3 (reads of this peptide / all reads for the bait, averaged over …
chain 1 Y8E	0.002 average fractional NGS count over selection days 2 and 3 (reads of this peptide / all reads for the bait, averaged over …
chain 1 Y8S	0.00106 average fractional NGS count over selection days 2 and 3 (reads of this peptide / all reads for the bait, averaged over …
chain 1 Y8M	0.00363 average fractional NGS count over selection days 2 and 3 (reads of this peptide / all reads for the bait, averaged over …
chain 1 Y8H	0.0119 average fractional NGS count over selection days 2 and 3 (reads of this peptide / all reads for the bait, averaged over …
chain 1 Y8G	0.000458 average fractional NGS count over selection days 2 and 3 (reads of this peptide / all reads for the bait, averaged over …
chain 1 S14G	0.000766 average fractional NGS count over selection days 2 and 3 (reads of this peptide / all reads for the bait, averaged over …
chain 1 S14Q	0.00119 average fractional NGS count over selection days 2 and 3 (reads of this peptide / all reads for the bait, averaged over …
chain 1 S14V	0.0171 average fractional NGS count over selection days 2 and 3 (reads of this peptide / all reads for the bait, averaged over …
chain 1 S14M	0.00342 average fractional NGS count over selection days 2 and 3 (reads of this peptide / all reads for the bait, averaged over …
chain 1 S14T	0.012 average fractional NGS count over selection days 2 and 3 (reads of this peptide / all reads for the bait, averaged over …
chain 1 S14H	0.00391 average fractional NGS count over selection days 2 and 3 (reads of this peptide / all reads for the bait, averaged over …
chain 1 S14F	0.00254 average fractional NGS count over selection days 2 and 3 (reads of this peptide / all reads for the bait, averaged over …
chain 1 S14E	0.00034 average fractional NGS count over selection days 2 and 3 (reads of this peptide / all reads for the bait, averaged over …
chain 1 S14W	0.00882 average fractional NGS count over selection days 2 and 3 (reads of this peptide / all reads for the bait, averaged over …
chain 1 S14R	0.000219 average fractional NGS count over selection days 2 and 3 (reads of this peptide / all reads for the bait, averaged over …
chain 1 S5G	0.000211 average fractional NGS count over selection days 2 and 3 (reads of this peptide / all reads for the bait, averaged over …
chain 1 S5K	0.00079 average fractional NGS count over selection days 2 and 3 (reads of this peptide / all reads for the bait, averaged over …
chain 1 S5I	0.00725 average fractional NGS count over selection days 2 and 3 (reads of this peptide / all reads for the bait, averaged over …
chain 1 S5D	0.00879 average fractional NGS count over selection days 2 and 3 (reads of this peptide / all reads for the bait, averaged over …
chain 1 S5Q	0.000811 average fractional NGS count over selection days 2 and 3 (reads of this peptide / all reads for the bait, averaged over …
chain 1 S5H	0.00161 average fractional NGS count over selection days 2 and 3 (reads of this peptide / all reads for the bait, averaged over …
chain 1 S5R	0.00066 average fractional NGS count over selection days 2 and 3 (reads of this peptide / all reads for the bait, averaged over …

Variant	screen value
chain 1 S5N	0.000275 average fractional NGS count over selection days 2 and 3 (reads of this peptide / all reads for the bait, averaged over …
chain 1 S5L	0.00637 average fractional NGS count over selection days 2 and 3 (reads of this peptide / all reads for the bait, averaged over …
chain 1 S5P	0.00403 average fractional NGS count over selection days 2 and 3 (reads of this peptide / all reads for the bait, averaged over …
chain 1 S9P	0.000206 average fractional NGS count over selection days 2 and 3 (reads of this peptide / all reads for the bait, averaged over …
chain 1 S9A	0.000707 average fractional NGS count over selection days 2 and 3 (reads of this peptide / all reads for the bait, averaged over …
chain 1 L11Y	0.000186 average fractional NGS count over selection days 2 and 3 (reads of this peptide / all reads for the bait, averaged over …
chain 1 L11I	0.00188 average fractional NGS count over selection days 2 and 3 (reads of this peptide / all reads for the bait, averaged over …
chain 1 L11V	0.00105 average fractional NGS count over selection days 2 and 3 (reads of this peptide / all reads for the bait, averaged over …
chain 1 L11E	0.000382 average fractional NGS count over selection days 2 and 3 (reads of this peptide / all reads for the bait, averaged over …
chain 1 L11R	0.00065 average fractional NGS count over selection days 2 and 3 (reads of this peptide / all reads for the bait, averaged over …
chain 1 L11T	0.00178 average fractional NGS count over selection days 2 and 3 (reads of this peptide / all reads for the bait, averaged over …
chain 1 L11A	0.000511 average fractional NGS count over selection days 2 and 3 (reads of this peptide / all reads for the bait, averaged over …
chain 1 R4Y	0.00355 average fractional NGS count over selection days 2 and 3 (reads of this peptide / all reads for the bait, averaged over …
chain 1 R4D	0.0132 average fractional NGS count over selection days 2 and 3 (reads of this peptide / all reads for the bait, averaged over …
chain 1 R4M	0.00101 average fractional NGS count over selection days 2 and 3 (reads of this peptide / all reads for the bait, averaged over …
chain 1 R4A	0.00627 average fractional NGS count over selection days 2 and 3 (reads of this peptide / all reads for the bait, averaged over …
chain 1 R4G	0.00304 average fractional NGS count over selection days 2 and 3 (reads of this peptide / all reads for the bait, averaged over …
chain 1 T1E	0.00477 average fractional NGS count over selection days 2 and 3 (reads of this peptide / all reads for the bait, averaged over …
chain 1 T1I	0.000851 average fractional NGS count over selection days 2 and 3 (reads of this peptide / all reads for the bait, averaged over …
chain 1 T1F	0.0018 average fractional NGS count over selection days 2 and 3 (reads of this peptide / all reads for the bait, averaged over …
chain 1 T1D	0.00201 average fractional NGS count over selection days 2 and 3 (reads of this peptide / all reads for the bait, averaged over …
chain 1 T1K	0.001 average fractional NGS count over selection days 2 and 3 (reads of this peptide / all reads for the bait, averaged over …
chain 1 T1W	0.00109 average fractional NGS count over selection days 2 and 3 (reads of this peptide / all reads for the bait, averaged over …
chain 1 T1G	0.00259 average fractional NGS count over selection days 2 and 3 (reads of this peptide / all reads for the bait, averaged over …
chain 1 E3G	0.00191 average fractional NGS count over selection days 2 and 3 (reads of this peptide / all reads for the bait, averaged over …

Variant	screen value
chain 1 E3V	0.000642 average fractional NGS count over selection days 2 and 3 (reads of this peptide / all reads for the bait, averaged over …
chain 1 E3D	0.000475 average fractional NGS count over selection days 2 and 3 (reads of this peptide / all reads for the bait, averaged over …
chain 1 E3S	0.00226 average fractional NGS count over selection days 2 and 3 (reads of this peptide / all reads for the bait, averaged over …
chain 1 E3W	0.0075 average fractional NGS count over selection days 2 and 3 (reads of this peptide / all reads for the bait, averaged over …
chain 1 E3H	0.00041 average fractional NGS count over selection days 2 and 3 (reads of this peptide / all reads for the bait, averaged over …
chain 1 Y13G	0.000568 average fractional NGS count over selection days 2 and 3 (reads of this peptide / all reads for the bait, averaged over …
chain 1 Y13M	0.00125 average fractional NGS count over selection days 2 and 3 (reads of this peptide / all reads for the bait, averaged over …
chain 1 Y13D	0.0137 average fractional NGS count over selection days 2 and 3 (reads of this peptide / all reads for the bait, averaged over …
chain 1 Y13A	0.000758 average fractional NGS count over selection days 2 and 3 (reads of this peptide / all reads for the bait, averaged over …
chain 1 Y13E	0.000568 average fractional NGS count over selection days 2 and 3 (reads of this peptide / all reads for the bait, averaged over …
chain 1 Y13F	0.0029 average fractional NGS count over selection days 2 and 3 (reads of this peptide / all reads for the bait, averaged over …
chain 1 W6F	0.000288 average fractional NGS count over selection days 2 and 3 (reads of this peptide / all reads for the bait, averaged over …
chain 1 W6N	0.00011 average fractional NGS count over selection days 2 and 3 (reads of this peptide / all reads for the bait, averaged over …
chain 1 W6V	0.00015 average fractional NGS count over selection days 2 and 3 (reads of this peptide / all reads for the bait, averaged over …
chain 1 V7D	0.000439 average fractional NGS count over selection days 2 and 3 (reads of this peptide / all reads for the bait, averaged over …
chain 1 V7E	0.00195 average fractional NGS count over selection days 2 and 3 (reads of this peptide / all reads for the bait, averaged over …
chain 1 V7I	0.000515 average fractional NGS count over selection days 2 and 3 (reads of this peptide / all reads for the bait, averaged over …
chain 1 V7H	0.000523 average fractional NGS count over selection days 2 and 3 (reads of this peptide / all reads for the bait, averaged over …
chain 1 V7Y	0.00645 average fractional NGS count over selection days 2 and 3 (reads of this peptide / all reads for the bait, averaged over …
chain 1 V7T	0.0104 average fractional NGS count over selection days 2 and 3 (reads of this peptide / all reads for the bait, averaged over …
chain 1 V7L	0.0042 average fractional NGS count over selection days 2 and 3 (reads of this peptide / all reads for the bait, averaged over …
chain 1 V7W	0.00263 average fractional NGS count over selection days 2 and 3 (reads of this peptide / all reads for the bait, averaged over …
chain 1 V7F	0.00058 average fractional NGS count over selection days 2 and 3 (reads of this peptide / all reads for the bait, averaged over …
chain 1 V7A	0.0345 average fractional NGS count over selection days 2 and 3 (reads of this peptide / all reads for the bait, averaged over …
chain 1 V7G	0.000623 average fractional NGS count over selection days 2 and 3 (reads of this peptide / all reads for the bait, averaged over …
